Laboratory results reported in US12099068B2, “Biomarkers for graft-versus-host disease” (Incyte Corporation, priority 2018, dated 2024).

B1: TACSTD2 (protein, UniProt P09758 27-323, looked up)
Tumor-associated calcium …: HTAAQDNCTCPTNKMTVCSPDGPGGRCQCRALGSGMAVDCSTLTSKCLLLKARMSAPKNARTLVRPSEHALVDNDGLYDPDCDPEGRFKARQCNQTSVCWCVNSVGVRRTDKGDLSLRCDELVRTHHILIDLRHRPTAGAFNHSDLDAELRRLFRERYRLHPKFVAAVHYEQPTIQIELRQNTSQKAAGDVDIGDAAYYFERDIKGESLFQGRGGLDLRVRGEPLQVERTLIYYLDEIPPKFSMKRLTAGLIAVIVVVVVALVAGMAVLVITNRRKSGKYKKVEIKELGELRKEPSL
B2: GT (protein, UniProt P51161 2-128, looked up)
Gastrotropin: AFTGKFEMESEKNYDEFMKLLGISSDVIEKARNFKIVTEVQQDGQDFTWSQHYSGGHTMTNKFTVGKESNIQTMGGKTFKATVQMEGGKLVVNFPNYHQTSEIVGDKLVEVSTIGGVTYERVSKRLA
B3: CD84 (protein, UniProt Q9UIB8 22-345, looked up)
SLAM family member 5: KDSEIFTVNGILGESVTFPVNIQEPRQVKIIAWTSKTSVAYVTPGDSETAPVVTVTHRNYYERIHALGPNYNLVISDLRMEDAGDYKADINTQADPYTTTKRYNLQIYRRLGKPKITQSLMASVNSTCNVTLTCSVEKEEKNVTYNWSPLGEEGNVLQIFQTPEDQELTYTCTAQNPVSNNSDSISARQLCADIAMGFRTHHTGLLSVLAMFFLLVLILSSVFLFRLFKRRQGRIFPEGSCLNTFTKNPYAASKKTIYTYIMASRNTQPAESRIYDEILQSKVLPSKEEPVNTVYSEVQFADKMGKASTQDSKPPGTSSYEIVI
B4: CD200R1 (protein, UniProt Q8TD46 25-348, looked up)
Cell surface glycoprotein …: EGAAQPNNSLMLQTSKENHALASSSLCMDEKQITQNYSKVLAEVNTSWPVKMATNAVLCCPPIALRNLIIITWEIILRGQPSCTKAYKKETNETKETNCTDERITWVSRPDQNSDLQIRTVAITHDGYYRCIMVTPDGNFHRGYHLQVLVTPEVTLFQNRNRTAVCKAVAGKPAAHISWIPEGDCATKQEYWSNGTVTVKSTCHWEVHNVSTVTCHVSHLTGNKSLYIELLPVPGAKKSAKLYIPYIILTIIILTIVGFIWLLKVNGCRKYKLNKTESTPVVEEDEMQPYASYTEKNNPLYDTTNKVKASEALQSEVDTDLHTL
B5: THY 1 (protein, UniProt P04216 20-130, looked up)
Thy-1 membrane glycoprotein: QKVTSLTACLVDQSLRLDCRHENTSSSPIQYEFSLTRETKKHVLFGTVGVPEHTYRSRTNFTSKYNMKVLYLSAFTSKDEGTYTCALHHSGHSPPISSQNVTVLRDKLVKC
B6: SERPINA9 (protein, UniProt Q86WD7 24-417, looked up)
Serpin A9: ANAPSAYPRPSSTKSTPASQVYSLNTDFAFRLYRRLVLETPSQNIFFSPVSVSTSLAMLSLGAHSVTKTQILQGLGFNLTHTPESAIHQGFQHLVHSLTVPSKDLTLKMGSALFVKKELQLQANFLGNVKRLYEAEVFSTDFSNPSIAQARINSHVKKKTQGKVVDIIQGLDLLTAMVLVNHIFFKAKWEKPFHPEYTRKNFPFLVGEQVTVHVPMMHQKEQFAFGVDTELNCFVLQMDYKGDAVAFFVLPSKGKMRQLEQALSARTLRKWSHSLQKRWIEVFIPRFSISASYNLETILPKMGIQNVFDKNADFSGIAKRDSLQVSKATHKAVLDVSEEGTEATAATTTKFIVRSKDGPSYFTVSFNRTFLMMITNKATDGILFLGKVENPTKS
B7: IRF9 (protein, UniProt Q00978 1-393, looked up)
Interferon regulatory factor 9: MASGRARCTRKLRNWVVEQVESGQFPGVCWDDTAKTMFRIPWKHAGKQDFREDQDAAFFKAWAIFKGKYKEGDTGGPAVWKTRLRCALNKSSEFKEVPERGRMDVAEPYKVYQLLPPGIVSGQPGTQKVPSKRQHSSVSSERKEEEDAMQNCTLSPSVLQDSLNNEEEGASGGAVHSDIGSSSSSSSPEPQEVTDTTEAPFQGDQRSLEFLLPPEPDYSLLLTFIYNGRVVGEAQVQSLDCRLVAEPSGSESSMEQVLFPKPGPLEPTQRLLSQLERGILVASNPRGLFVQRLCPIPISWNAPQAPPGPGPHLLPSNECVELFRTAYFCRDLVRYFQGLGPPPKFQVTLNFWEESHGSSHTPQNLITVKMEQAFARYLLEQTPEQQAAILSLV
B8: NINJ1 (protein, UniProt Q92982 1-152, looked up)
Ninjurin-1: MDSGTEEYELNGGLPPGTPGSPDASPARWGWRHGPINVNHYASKKSAAESMLDIALLMANASQLKAVVEQGPSFAFYVPLVVLISISLVLQIGVGVLLIFLVKYDLNNPAKHAKLDFLNNLATGLVFIIVVVNIFITAFGVQKPLMDMAPQQ
B9: LY9 (protein, UniProt Q9HBG7 48-655, looked up)
T-lymphocyte surface antigen …: KDSAPTVVSGILGGSVTLPLNISVDTEIENVIWIGPKNALAFARPKENVTIMVKSYLGRLDITKWSYSLCISNLTLNDAGSYKAQINQRNFEVTTEEEFTLFVYEQLQEPQVTMKSVKVSENFSCNITLMCSVKGAEKSVLYSWTPREPHASESNGGSILTVSRTPCDPDLPYICTAQNPVSQRSSLPVHVGQFCTDPGASRGGTTGETVVGVLGEPVTLPLALPACRDTEKVVWLFNTSIISKEREEAATADPLIKSRDPYKNRVWVSSQDCSLKISQLKIEDAGPYHAYVCSEASSVTSMTHVTLLIYRRLRKPKITWSLRHSEDGICRISLTCSVEDGGNTVMYTWTPLQKEAVVSQGESHLNVSWRSSENHPNLTCTASNPVSRSSHQFLSENICSGPERNTKLWIGLFLMVCLLCVGIFSWCIWKRKGRCSVPAFCSSQAEAPADTPEPTAGHTLYSVLSQGYEKLDTPLRPARQQPTPTSDSSSDSNLTTEEDEDRPEVHKPISGRYEVFDQVTQEGAGHDPAPEGQADYDPVTPYVTEVESVVGENTMYAQVFNLQGKTPVSQKEESSATIYCSIRKPQVVPPPQQNDLEIPESPTYENFT
B10: APLP1 (protein, UniProt P51693 39-650, looked up)
Amyloid beta precursor like …: SLAGGSPGAAEAPGSAQVAGLCGRLTLHRDLRTGRWEPDPQRSRRCLRDPQRVLEYCRQMYPELQIARVEQATQAIPMERWCGGSRSGSCAHPHHQVVPFRCLPGEFVSEALLVPEGCRFLHQERMDQCESSTRRHQEAQEACSSQGLILHGSGMLLPCGSDRFRGVEYVCCPPPGTPDPSGTAVGDPSTRSWPPGSRVEGAEDEEEEESFPQPVDDYFVEPPQAEEEEETVPPPSSHTLAVVGKVTPTPRPTDGVDIYFGMPGEISEHEGFLRAKMDLEERRMRQINEVMREWAMADNQSKNLPKADRQALNEHFQSILQTLEEQVSGERQRLVETHATRVIALINDQRRAALEGFLAALQADPPQAERVLLALRRYLRAEQKEQRHTLRHYQHVAAVDPEKAQQMRFQVHTHLQVIEERVNQSLGLLDQNPHLAQELRPQIQELLHSEHLGPSELEAPAPGGSSEDKGGLQPPDSKDDTPMTLPKGSTEQDAASPEKEKMNPLEQYERKVNASVPRGFPFHSSEIQRDELAPAGTGVSREAVSGLLIMGAGGGSLIVLSMLLLRRKKPYGAISHGVVEVDPMLTLEEQQLRELQRHGYENPTYRFLEERP
B11: REN (protein, UniProt P00797 67-406, looked up)
Renin: LTLGNTTSSVILTNYMDTQYYGEIGIGTPPQTFKVVFDTGSSNVWVPSSKCSRLYTACVYHKLFDASDSSSYKHNGTELTLRYSTGTVSGFLSQDIITVGGITVTQMFGEVTEMPALPFMLAEFDGVVGMGFIEQAIGRVTPIFDNIISQGVLKEDVFSFYYNRDSENSQSLGGQIVLGGSDPQHYEGNFHYINLIKTGVWQIQMKGVSVGSSTLLCEDGCLALVDTGASYISGSTSSIEKLMEALGAKKRLFDYVVKCNEGPTLPDISFHLGGKEYTLTSADYVFQESYSSKKLCTLAIHAMDIPPPTGPTWALGATFIRKFYTEFDRRNNRIGFALAR
B12: ITGB5 (protein, UniProt P18084 24-799, looked up)
Integrin beta-5: GLNICTSGSATSCEECLLIHPKCAWCSKEDFGSPRSITSRCDLRANLVKNGCGGEIESPASSFHVLRSLPLSSKGSGSAGWDVIQMTPQEIAVNLRPGDKTTFQLQVRQVEDYPVDLYYLMDLSLSMKDDLDNIRSLGTKLAEEMRKLTSNFRLGFGSFVDKDISPFSYTAPRYQTNPCIGYKLFPNCVPSFGFRHLLPLTDRVDSFNEEVRKQRVSRNRDAPEGGFDAVLQAAVCKEKIGWRKDALHLLVFTTDDVPHIALDGKLGGLVQPHDGQCHLNEANEYTASNQMDYPSLALLGEKLAENNINLIFAVTKNHYMLYKNFTALIPGTTVEILDGDSKNIIQLIINAYNSIRSKVELSVWDQPEDLNLFFTATCQDGVSYPGQRKCEGLKIGDTASFEVSLEARSCPSRHTEHVFALRPVGFRDSLEVGVTYNCTCGCSVGLEPNSARCNGSGTYVCGLCECSPGYLGTRCECQDGENQSVYQNLCREAEGKPLCSGRGDCSCNQCSCFESEFGKIYGPFCECDNFSCARNKGVLCSGHGECHCGECKCHAGYIGDNCNCSTDISTCRGRDGQICSERGHCLCGQCQCTEPGAFGEMCEKCPTCPDACSTKRDCVECLLLHSGKPDNQTCHSLCRDEVITWVDTIVKDDQEAVLCFYKTAKDCVMMFTYVELPSGKSNLTVLREPECGNTPNAMTILLAVVGSILLVGLALLAIWKLLVTIHDRREFAKFQSERSRARYEMASNPLYRKPISTHTVDFTFNKFNKSYNGTVD
B13: STX8 (protein, UniProt Q9UNK0 1-236, looked up)
Syntaxin-8: MAPDPWFSTYDSTCQIAQEIAEKIQQRNQYERKGEKAPKLTVTIRALLQNLKEKIALLKDLLLRAVSTHQITQLEGDRRQNLLDDLVTRERLLLASFKNEGAEPDLIRSSLMSEEAKRGAPNPWLFEEPEETRGLGFDEIRQQQQKIIQEQDAGLDALSSIISRQKQMGQEIGNELDEQNEIIDDLANLVENTDEKLRNETRRVNMVDRKSASCGMIMVILLLLVAIVVVAVWPTN
B14: KAZALD1 (protein, UniProt Q96I82 31-304, looked up)
Kazal-type serine protease …: RPSPGPDYLRRGWMRLLAEGEGCAPCRPEECAAPRGCLAGRVRDACGCCWECANLEGQLCDLDPSAHFYGHCGEQLECRLDTGGDLSRGEVPEPLCACRSQSPLCGSDGHTYSQICRLQEAARARPDANLTVAHPGPCESGPQIVSHPYDTWNVTGQDVIFGCEVFAYPMASIEWRKDGLDIQLPGDDPHISVQFRGGPQRFEVTGWLQIQAVRPSDEGTYRCLGRNALGQVEAPASLTVLTPDQLNSTGIPQLRSLNLVPEEEAESEENDDYY

What follows are molecules tested on plasma proteins (assay: Plasma proteins modulated between baseline and day 28 in responders (CR, VGPR, PR; n = 19), Example 6 (Table 13)). Conditions: plasma protein (OLINK NPX); responders (CR, VGPR, PR; n = 19); itacitinib 200 mg or 300 mg QD with corticosteroids; day 28 vs baseline.
Format: in vivo, human
In short: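 Longitudinal comparison, day 28 versus baseline, with steroid-naive (N=10) and steroid-refractory (N=18) patients combined. Proteins measured by OLINK proximity extension, log2 normalized protein expression. Differences tested by t tests, ANOVA, Pearson correlation, P<0.05 significant.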

| Molecule | Fold Change, Increased Expression from Baseline to Day 28 | Fold Change, Decreased Expression from Baseline to Day 28 |
| --- | --- | --- |
| B1 | 1.1931 | – |
| B2 | 1.8699 | – |
| B3 | – | −1.7208 |
| B4 | – | −1.4752 |
| B5 | – | −1.2913 |
| B6 | 1.5418 | – |
| B7 | – | −1.4384 |
| B8 | 1.2723 | – |
| B9 | – | −1.4447 |
| B10 | 1.4933 | – |
| B11 | 1.4074 | – |
| B12 | 1.229 | – |
| B13 | – | −1.4796 |
| B14 | 1.2609 | – |
